From patent US20210130827A1
“And” between values parts separate entries of the source, which are not always exact repeats. Equal entries are not always repeated.

Target: catalytically deactivated LbCpf1 (dLbCpf1)(dLbCas12a) with eight copies of GCN4 epitopes fused to the C-terminus (Lachnospiraceae bacterium)
Test: cell-based or functional assay

## antibody targeted toward the GCN4 epitope fused to hAPOBEC3A (scFv)
  C to T editing efficiency compared to unfused dCpf1 (NGS, HEK293T cells): < 5 fold
  C to T editing rate (NGS, HEK293T cells, not sorted for transfected cells) (% of treated cell population): 7 and 19
